For one data set, the target named is GST-DllHD (UniProt P20009 120-188). Description: EMSA; strictly monomeric; abolished by increasing GST-C15HD; EMSA, 6% native polyacrylamide, 32P probes; buffers as in cited refs 22 (Bowl) and 26 (HD), not stated here. The note with it: protein: recombinant; tags: GST (N-term, pGex4T); label: 32P (Klenow dCTP).
For data set [1], the target named is T1, GST-C15HD (Drosophila melanogaster, UniProt Q4V729 192-292). As to the kind of experiment: EMSA; monomeric and some dimeric complexes; displaces DllHD dose-dependently; EMSA, 6% native polyacrylamide, 32P probes; buffers as in cited refs 22 (Bowl) and 26 (HD), not stated here. The note with it: protein: recombinant; tags: GST (N-term, pGex4T); label: 32P (Klenow dCTP).
T1 sequence (Q4V729 entry or part of it): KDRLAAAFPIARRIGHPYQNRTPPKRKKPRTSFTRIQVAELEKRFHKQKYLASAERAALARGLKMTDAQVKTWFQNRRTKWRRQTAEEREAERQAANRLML

The next data set concerns the target GST-BowlZF (UniProt Q9VQU9 220-382). As to the kind of experiment: EMSA; EMSA, 6% native polyacrylamide, 32P probes; buffers as in cited refs 22 (Bowl) and 26 (HD), not stated here. The note with it: protein: recombinant, tags: GST (N-term, pGex4T).
The target of data set [2] is T1, GST-C15HD. The description is as above. The note with it: protein: recombinant; tags: GST (N-term, pGex4T); label: 32P (Klenow dCTP).
Data set [3] concerns the target T1, GST-C15HD. Description: EMSA; up to three complexes; EMSA, 6% native polyacrylamide, 32P probes; buffers as in cited refs 22 (Bowl) and 26 (HD), not stated here. Particulars: protein: recombinant; tags: GST (N-term, pGex4T); label: 32P (Klenow dCTP).
Data set [4] concerns the target T1, GST-C15HD. As to the kind of experiment: EMSA; equivalent to CR1; EMSA, 6% native polyacrylamide, 32P probes; buffers as in cited refs 22 (Bowl) and 26 (HD), not stated here. The note with it: protein: recombinant; tags: GST (N-term, pGex4T); label: 32P (Klenow dCTP).

Substitutions are numbered along the chain they refer to.

Here are results for 10 molecules from paper PMC5402979, “Tissue-specific enhancer repression through molecular integration of cell signaling inputs”.

Chain of GST-BowlZF (Q9VQU9 220-382): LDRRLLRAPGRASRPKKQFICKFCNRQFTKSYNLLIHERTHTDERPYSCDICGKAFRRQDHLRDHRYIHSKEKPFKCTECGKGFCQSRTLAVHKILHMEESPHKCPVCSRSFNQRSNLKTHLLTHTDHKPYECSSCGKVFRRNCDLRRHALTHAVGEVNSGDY
Chain of GST-DllHD (P20009 120-188): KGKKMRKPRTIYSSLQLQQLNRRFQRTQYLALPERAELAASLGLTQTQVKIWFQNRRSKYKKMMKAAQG

B1: CR1 3' half (dsDNA)
DNA 1: CACGAAAAACAATTCAAAATTAATGGTAATAAGCAGTT
DNA 2: AACTGCTTATTACCATTAATTTTGAATTGTTTTTCGTG
Consider B1, for which the binding result in the data set with GST-DllHD and with GST-C15HD [1] was “binds” each time.

B2: 1L+ (CR2 large) (dsDNA)
DNA 1: TACAACAGAAGCCGTCTGGC
DNA 2: GCCAGACGGCTTCTGTTGTA
In the case of B2, the binding result in the data set with GST-BowlZF (label: 32P (Klenow dCTP)) was “binds”.

B3: 1Sm (dsDNA)
DNA 1: TACAATTTAAGCCGTC
DNA 2: GACGGCTTAAATTGTA
B3: the binding result with GST-BowlZF (label: 32P (Klenow dCTP)) is “no binding”.

B4: 2Sm (dsDNA)
DNA 1: AAATTTTAGTCCCAG
DNA 2: CTGGGACTAAAATTT
On to B4, for which, in the data set with GST-BowlZF (label: 32P (Klenow dCTP)), the binding result is reported as “no binding”.

B5: CR1S3+4+6m (dsDNA)
DNA 1: TTAAGCTGCAAATCGCGGCGGGCGCCCCGATCACGCCGGGCGGTTCGGGATTAATGGTAATAAGCAGTT
DNA 2: AACTGCTTATTACCATTAATCCCGAACCGCCCGGCGTGATCGGGGCGCCCGCCGCGATTTGCAGCTTAA
Turning to B5, in the data set with GST-C15HD [2], the binding result is given as “no binding”.

B6: 1Lm (dsDNA)
DNA 1: TACAATTTAAGCCGTAAAGC
DNA 2: GCTTTACGGCTTAAATTGTA
Turning to B6, in the data set with GST-BowlZF (label: 32P (Klenow dCTP)), the binding result is given as “no binding”.

B7: OddZF BS (dsDNA)
DNA 1: GCATACAGTAGCACTGATAT
DNA 2: ATATCAGTGCTACTGTATGC
Consider B7, for which the binding result with GST-BowlZF (label: 32P 5' end (Klenow, one dCTP)) is reported as “binds”.

B8: CR1 (dsDNA)
DNA 1: TTAAGCTGCAAATCGCGGCAATCGTTAAGATCACGAAAAACAATTCAAAATTAATGGTAATAAGCAGTT
DNA 2: AACTGCTTATTACCATTAATTTTGAATTGTTTTTCGTGATCTTAACGATTGCCGCGATTTGCAGCTTAA
Take B8: in the data set with GST-C15HD [3], the binding result is recorded as “binds”.

B9: CR1DBSm (dsDNA)
DNA 1: B8 DNA 1 with A50C, T51C, T52C, A53C, T58C, A59C, A60C, T61C
DNA 2: B8 DNA 2 with A9G, T10G, T11G, A12G, T17G, A18G, A19G, T20G
As for B9, in the data set with GST-C15HD [4], the binding result is reported as “binds”.

B10: DBS (Dll-binding sequence) (dsDNA)
DNA 1: TCAAAATTAATGGTAATAAGCA
DNA 2: TGCTTATTACCATTAATTTTGA
As to B10, in the data set with GST-C15HD [2], the binding result is given as “no binding”.
